# Measured values from patent US20250262210A1 (TRUSTEES OF COLUMBIA UNIVERSITY IN THE CITY OF NEW YORK, published 2025).
# T1: AP4E1 (human, UniProt Q9UPM8 1-1137, limits assumed)
# T1 sequence (looked up): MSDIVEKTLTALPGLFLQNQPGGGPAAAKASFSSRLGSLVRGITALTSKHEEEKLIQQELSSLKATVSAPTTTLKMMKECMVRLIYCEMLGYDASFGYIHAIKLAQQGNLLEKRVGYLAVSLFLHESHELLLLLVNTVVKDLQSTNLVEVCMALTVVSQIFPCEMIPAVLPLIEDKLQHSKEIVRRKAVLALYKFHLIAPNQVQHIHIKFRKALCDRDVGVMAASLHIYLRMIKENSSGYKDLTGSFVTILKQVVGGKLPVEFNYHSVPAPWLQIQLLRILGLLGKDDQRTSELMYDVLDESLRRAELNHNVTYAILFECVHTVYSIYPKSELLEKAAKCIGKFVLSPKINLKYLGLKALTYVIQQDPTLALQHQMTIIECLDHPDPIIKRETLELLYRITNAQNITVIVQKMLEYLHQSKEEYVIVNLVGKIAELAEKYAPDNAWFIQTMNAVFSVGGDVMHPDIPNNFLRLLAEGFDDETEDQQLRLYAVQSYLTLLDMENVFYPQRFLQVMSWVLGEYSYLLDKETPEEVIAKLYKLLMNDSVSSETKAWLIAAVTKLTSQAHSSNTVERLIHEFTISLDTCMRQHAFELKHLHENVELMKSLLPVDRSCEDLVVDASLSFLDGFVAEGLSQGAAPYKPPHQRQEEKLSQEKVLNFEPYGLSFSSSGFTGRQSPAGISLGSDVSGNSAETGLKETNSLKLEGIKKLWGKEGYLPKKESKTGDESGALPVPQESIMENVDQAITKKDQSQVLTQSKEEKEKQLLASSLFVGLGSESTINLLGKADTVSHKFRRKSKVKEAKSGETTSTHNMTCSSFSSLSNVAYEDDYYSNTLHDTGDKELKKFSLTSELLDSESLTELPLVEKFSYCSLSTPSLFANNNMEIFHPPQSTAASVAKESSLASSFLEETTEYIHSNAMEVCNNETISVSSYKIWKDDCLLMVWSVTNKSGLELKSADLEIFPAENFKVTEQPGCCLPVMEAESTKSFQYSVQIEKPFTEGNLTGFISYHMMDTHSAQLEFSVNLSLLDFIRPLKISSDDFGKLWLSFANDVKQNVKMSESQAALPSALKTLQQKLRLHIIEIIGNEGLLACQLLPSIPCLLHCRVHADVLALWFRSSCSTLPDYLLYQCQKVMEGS
# Columns and labels:
# AP4E1 = molecular target: T1, AP4E1; assay: IP/MS, LZTR1 R810W-FLAG, U87
# How it was run: (§1)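 Extracted peptides in 3% acetonitrile/0.1% formic acid ran on a 50 cm C18 column into an Orbitrap Fusion, with MaxQuant identification and spectral counting.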
# TTC27 = TTC27 (human, UniProt Q6P3X3 1-843); assay: IP/MS, LZTR1 R810W-FLAG, U87
# How it was run: as §1
binder,measurement,setting,value
"LZTR1 R810W-FLAG (other, human, UniProt Q8N653 1-840, looked up, Stably expressed in U87 cells by lentivirus; also called LZTR1-FLAG-R810W; LZTR1 RW; not shown: FLAG tag) MAGPGSTGGQIGAAALAGGARSKVAPSVDFDHSCSDSVEYLTLNFGPFETVHRWRRLPPCDEFVGARRSKHTVVAYKDAIYVFGGDNGKTMLNDLLRFDVKDCSWCRAFTTGTPPAPRYHHSAVVYGSSMFVFGGYTGDIYSNSNLKNKNDLFEYKFATGQWTEWKIEGRLPVARSAHGATVYSDKLWIFAGYDGNARLNDMWTIGLQDRELTCWEEVAQSGEIPPSCCNFPVAVCRDKMFVFSGQSGAKITNNLFQFEFKDKTWTRIPTEHLLRGSPPPPQRRYGHTMVAFDRHLYVFGGAADNTLPNELHCYDVDFQTWEVVQPSSDSEVGGAEVPERACASEEVPTLTYEERVGFKKSRDVFGLDFGTTSAKQPTQPASELPSGRLFHAAAVISDAMYIFGGTVDNNIRSGEMYRFQFSCYPKCTLHEDYGRLWESRQFCDVEFVLGEKEECVQGHVAIVTARSRWLRRKITQARERLAQKLEQEAAPVPREAPGVAAGGARPPLLHVAIREAEARPFEVLMQFLYTDKIKYPRKGHVEDVLLIMDVYKLALSFQLCRLEQLCRQYIEASVDLQNVLVVCESAARLQLSQLKEHCLNFVVKESHFNQVIMMKEFERLSSPLIVEIVRRKQQPPPRTPLDQPVDIGTSLIQDMKAYLEGAGAEFCDITLLLDGHPRPAHKAILAARSSYFEAMFRSFMPEDGQVNISIGEMVPSRQAFESMLRYIYYGEVNMPPEDSLYLFAAPYYYGFYNNRLQAYCKQNLEMNVTVQNVLQILEAADKTQALDMKRHCLHIIVHQFTKVSKLPTLWSLSQQLLLDIIDSLASHISDKQCAELGADI",binding result,AP4E1,binds
same,binding result,TTC27,binds
